{"source": "patent US7378498B2", "about": "“Protein encoded by a nucleic acid” (The Johns Hopkins University School of Medicine, priority 1998, dated 2008)", "data": [{"system": "GST-mGluR5 or GST-Shank3 (residues 1143-1408)", "assay": "GST pull-down binding of Homer EVH1 point mutants", "design": "key: wild-type (+); (−) indicates substantially reduced binding relative to wild-type (+)", "details": "GST pull-down of myc-tagged mutants from HEK293 lysates, relative to wild-type", "values": [{"molecule": "F7R: point mutant of the Homer EVH1 domain (protein, left off: small tags and cut ends, point mutant of the Homer EVH1 domain) MGEQPIRSTRAHVFQIDPNTKKNWVPTSKHAVTVSYFYDSTRNVYRIISLDGSKAIINSTITPNMTFTKTSQKFGQWADSRANTVYGLGFSSEHHLSKFAEKFQEFKEAARLAKEKSQEK", "Binding": "+"}, {"molecule": "S28A: point mutant of the Homer EVH1 domain (protein, left off: small tags and cut ends, point mutant of the Homer EVH1 domain) MGEQPIFSTRAHVFQIDPNTKKNWVPTAKHAVTVSYFYDSTRNVYRIISLDGSKAIINSTITPNMTFTKTSQKFGQWADSRANTVYGLGFSSEHHLSKFAEKFQEFKEAARLAKEKSQEK", "Binding": "−"}, {"molecule": "F90S: point mutant of the Homer EVH1 domain (protein, left off: small tags and cut ends, point mutant of the Homer EVH1 domain) MGEQPIFSTRAHVFQIDPNTKKNWVPTSKHAVTVSYFYDSTRNVYRIISLDGSKAIINSTITPNMTFTKTSQKFGQWADSRANTVYGLGSSSEHHLSKFAEKFQEFKEAARLAKEKSQEK", "Binding": "+"}, {"molecule": "F67S: point mutant of the Homer EVH1 domain (protein, left off: small tags and cut ends, point mutant of the Homer EVH1 domain) MGEQPIFSTRAHVFQIDPNTKKNWVPTSKHAVTVSYFYDSTRNVYRIISLDGSKAIINSTITPNMTSTKTSQKFGQWADSRANTVYGLGFSSEHHLSKFAEKFQEFKEAARLAKEKSQEK", "Binding": "−"}, {"molecule": "R46C: point mutant of the Homer EVH1 domain (protein, left off: small tags and cut ends, point mutant of the Homer EVH1 domain) MGEQPIFSTRAHVFQIDPNTKKNWVPTSKHAVTVSYFYDSTRNVYCIISLDGSKAIINSTITPNMTFTKTSQKFGQWADSRANTVYGLGFSSEHHLSKFAEKFQEFKEAARLAKEKSQEK", "Binding": "+"}, {"molecule": "L96S: point mutant of the Homer EVH1 domain (protein, left off: small tags and cut ends, point mutant of the Homer EVH1 domain) MGEQPIFSTRAHVFQIDPNTKKNWVPTSKHAVTVSYFYDSTRNVYRIISLDGSKAIINSTITPNMTFTKTSQKFGQWADSRANTVYGLGFSSEHHSSKFAEKFQEFKEAARLAKEKSQEK", "Binding": "+"}, {"molecule": "N64G: point mutant of the Homer EVH1 domain (protein, left off: small tags and cut ends, point mutant of the Homer EVH1 domain) MGEQPIFSTRAHVFQIDPNTKKNWVPTSKHAVTVSYFYDSTRNVYRIISLDGSKAIINSTITPGMTFTKTSQKFGQWADSRANTVYGLGFSSEHHLSKFAEKFQEFKEAARLAKEKSQEK", "Binding": "+"}, {"molecule": "R42E: point mutant of the Homer EVH1 domain (protein, left off: small tags and cut ends, point mutant of the Homer EVH1 domain) MGEQPIFSTRAHVFQIDPNTKKNWVPTSKHAVTVSYFYDSTENVYRIISLDGSKAIINSTITPNMTFTKTSQKFGQWADSRANTVYGLGFSSEHHLSKFAEKFQEFKEAARLAKEKSQEK", "Binding": "−"}, {"molecule": "S35V: point mutant of the Homer EVH1 domain (protein, left off: small tags and cut ends, point mutant of the Homer EVH1 domain) MGEQPIFSTRAHVFQIDPNTKKNWVPTSKHAVTVVYFYDSTRNVYRIISLDGSKAIINSTITPNMTFTKTSQKFGQWADSRANTVYGLGFSSEHHLSKFAEKFQEFKEAARLAKEKSQEK", "Binding": "+"}, {"molecule": "E93K: point mutant of the Homer EVH1 domain (protein, left off: small tags and cut ends, point mutant of the Homer EVH1 domain) MGEQPIFSTRAHVFQIDPNTKKNWVPTSKHAVTVSYFYDSTRNVYRIISLDGSKAIINSTITPNMTFTKTSQKFGQWADSRANTVYGLGFSSKHHLSKFAEKFQEFKEAARLAKEKSQEK", "Binding": "+"}, {"molecule": "F74A: point mutant of the Homer EVH1 domain (protein, left off: small tags and cut ends, point mutant of the Homer EVH1 domain) MGEQPIFSTRAHVFQIDPNTKKNWVPTSKHAVTVSYFYDSTRNVYRIISLDGSKAIINSTITPNMTFTKTSQKAGQWADSRANTVYGLGFSSEHHLSKFAEKFQEFKEAARLAKEKSQEK", "Binding": "+"}, {"molecule": "Q72A: point mutant of the Homer EVH1 domain (protein, left off: small tags and cut ends, point mutant of the Homer EVH1 domain) MGEQPIFSTRAHVFQIDPNTKKNWVPTSKHAVTVSYFYDSTRNVYRIISLDGSKAIINSTITPNMTFTKTSAKFGQWADSRANTVYGLGFSSEHHLSKFAEKFQEFKEAARLAKEKSQEK", "Binding": "+"}, {"molecule": "F74L: point mutant of the Homer EVH1 domain (protein, left off: small tags and cut ends, point mutant of the Homer EVH1 domain) MGEQPIFSTRAHVFQIDPNTKKNWVPTSKHAVTVSYFYDSTRNVYRIISLDGSKAIINSTITPNMTFTKTSQKLGQWADSRANTVYGLGFSSEHHLSKFAEKFQEFKEAARLAKEKSQEK", "Binding": "+"}, {"molecule": "K69A: point mutant of the Homer EVH1 domain (protein, left off: small tags and cut ends, point mutant of the Homer EVH1 domain) MGEQPIFSTRAHVFQIDPNTKKNWVPTSKHAVTVSYFYDSTRNVYRIISLDGSKAIINSTITPNMTFTATSQKFGQWADSRANTVYGLGFSSEHHLSKFAEKFQEFKEAARLAKEKSQEK", "Binding": "+"}, {"molecule": "R42A: point mutant of the Homer EVH1 domain (protein, left off: small tags and cut ends, point mutant of the Homer EVH1 domain) MGEQPIFSTRAHVFQIDPNTKKNWVPTSKHAVTVSYFYDSTANVYRIISLDGSKAIINSTITPNMTFTKTSQKFGQWADSRANTVYGLGFSSEHHLSKFAEKFQEFKEAARLAKEKSQEK", "Binding": "+"}, {"molecule": "D39A: point mutant of the Homer EVH1 domain (protein, left off: small tags and cut ends, point mutant of the Homer EVH1 domain) MGEQPIFSTRAHVFQIDPNTKKNWVPTSKHAVTVSYFYASTRNVYRIISLDGSKAIINSTITPNMTFTKTSQKFGQWADSRANTVYGLGFSSEHHLSKFAEKFQEFKEAARLAKEKSQEK", "Binding": "−"}, {"molecule": "S8L: point mutant of the Homer EVH1 domain (protein, left off: small tags and cut ends, point mutant of the Homer EVH1 domain) MGEQPIFLTRAHVFQIDPNTKKNWVPTSKHAVTVSYFYDSTRNVYRIISLDGSKAIINSTITPNMTFTKTSQKFGQWADSRANTVYGLGFSSEHHLSKFAEKFQEFKEAARLAKEKSQEK", "Binding": "−"}, {"molecule": "V34M: point mutant of the Homer EVH1 domain (protein, left off: small tags and cut ends, point mutant of the Homer EVH1 domain) MGEQPIFSTRAHVFQIDPNTKKNWVPTSKHAVTMSYFYDSTRNVYRIISLDGSKAIINSTITPNMTFTKTSQKFGQWADSRANTVYGLGFSSEHHLSKFAEKFQEFKEAARLAKEKSQEK", "Binding": "+"}, {"molecule": "N58A: point mutant of the Homer EVH1 domain (protein, left off: small tags and cut ends, point mutant of the Homer EVH1 domain) MGEQPIFSTRAHVFQIDPNTKKNWVPTSKHAVTVSYFYDSTRNVYRIISLDGSKAIIASTITPNMTFTKTSQKFGQWADSRANTVYGLGFSSEHHLSKFAEKFQEFKEAARLAKEKSQEK", "Binding": "+"}, {"molecule": "N23A: point mutant of the Homer EVH1 domain (protein, left off: small tags and cut ends, point mutant of the Homer EVH1 domain) MGEQPIFSTRAHVFQIDPNTKKAWVPTSKHAVTVSYFYDSTRNVYRIISLDGSKAIINSTITPNMTFTKTSQKFGQWADSRANTVYGLGFSSEHHLSKFAEKFQEFKEAARLAKEKSQEK", "Binding": "+"}, {"molecule": "H95A: point mutant of the Homer EVH1 domain (protein, left off: small tags and cut ends, point mutant of the Homer EVH1 domain) MGEQPIFSTRAHVFQIDPNTKKNWVPTSKHAVTVSYFYDSTRNVYRIISLDGSKAIINSTITPNMTFTKTSQKFGQWADSRANTVYGLGFSSEHALSKFAEKFQEFKEAARLAKEKSQEK", "Binding": "+"}, {"molecule": "R46A: point mutant of the Homer EVH1 domain (protein, left off: small tags and cut ends, point mutant of the Homer EVH1 domain) MGEQPIFSTRAHVFQIDPNTKKNWVPTSKHAVTVSYFYDSTRNVYAIISLDGSKAIINSTITPNMTFTKTSQKFGQWADSRANTVYGLGFSSEHHLSKFAEKFQEFKEAARLAKEKSQEK", "Binding": "−"}, {"molecule": "I48A: point mutant of the Homer EVH1 domain (protein, left off: small tags and cut ends, point mutant of the Homer EVH1 domain) MGEQPIFSTRAHVFQIDPNTKKNWVPTSKHAVTVSYFYDSTRNVYRIASLDGSKAIINSTITPNMTFTKTSQKFGQWADSRANTVYGLGFSSEHHLSKFAEKFQEFKEAARLAKEKSQEK", "Binding": "+"}]}]}
